The nature of the data set: yeast display, Sf9 membrane polyspecificity reagent, FACS + sequencing; frameworks hold sequencing errors. The method, boiled down:
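In a synthetic yeast display library (Saccharomyces cerevisiae BJ5465), nanobody expression was induced with galactose for 36–48 hours. FACS gates were set low and high (top ~1%) using anti-HA fluorescence for expression and streptavidin fluorescence for binding of the Sf9 membrane reagent. Each polyreactivity label is drawn from the gate of origin.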
With “QVQLVESGGGLVQSGGSLRLSCAASGSSFLWYGMGSYRQAPGKERELVASISRGGGTDYADSVKGRFTISRDNAKNTVYLQMNSLKPEDTAVYYCAATGVKRYDHWGQGTQVTVSS”, the “polyreactivity (PSR sort gate)” value is reported as “low polyreactivity”. As to “QVQLVESGGGLVQAGGSLRLSCAASGSTFGRNAMGWYRQAPGKERELVAAITASGGTTYYADSVKGRFTISRDNAKNTVYLQMNSLKPEETAVYYCARAGHFSFKYDYWGQGTQVTVSS”, the “polyreactivity (PSR sort gate)” value was “low polyreactivity”.

Regarding “QVQLVESGGGLVQAGGSLRLSCAASGRTFWTYTMGWYRQAPGKEREFVAAITFGDGSTSYADSVKGRFTISRDNAKNTVYFQMNSLKPEDTAVYYCAKRWRRRFVDVWSLYDYWGQGTQVTVSS”, the “polyreactivity (PSR sort gate)” value was “low polyreactivity”. Next, “QVQLVESGGGLVQAGGSLRLSCAASGRIFTRYAMGWYRKEPGKERELVAAISYGGGGTYYADSVKGRFTISRDNAKNTVYLQMNSLKPEDTAVYYCATDDPLSQINEQGMDYWGQGTQVTVSS”: “low polyreactivity”; “QVQLVESGGGLVQAGGSFRLSCAASGRIFSPNAMGWYRQAPGKEREFVAAINDRGGNTYYADSVKGRFTISRDNAKNTVYLQMNSLKPEDTAVYYCAATVTVFYTRYYYWGQGTQVTVSS”: “high polyreactivity”.

“QVQRVDSGGGLVQAGGSLRLTCAASGSTFDKYAMGWYRQAPGKERELVAAISLSGGSTYYADSVKGRFTISRDNAKNTVYLQMNSLKPEDTAVYYCNTPPSRYVRYGIYRYDYWGQGTQVTVSS”: the “polyreactivity (PSR sort gate)” value is recorded as “high polyreactivity”.

Turning to “QVQLVESGGGLVQAGGSLRLSCAASGSILYTNAMGWYRQAPGKERELVAAITTSGASTYYADSVKGRFTISRDNAKNTVYLQMNSLKPEDTAVYDCAAPSRYRYYWGNYWGQGTQVTVSS”, the “polyreactivity (PSR sort gate)” value is recorded as “high polyreactivity”.

With “QVQLVESGGGLVQAGGSLRLSCAASAYILFKYAKGSYRQAPGKERELVAGITRGGTTYYADSVKGRFTISRDNAKNTVYLQMNSLKPEDTAVYYCAVAITFSSYKFYYWGQGTQVTVSS”, the “polyreactivity (PSR sort gate)” value is recorded as “high polyreactivity”. On to “QDQLVDSGGGLVQAGGSLRLSCAASGRIIGYNAMVWYRQGPGKERELVAAITTSGGSTYYADSVKGRFTISSDNAKNTVYLQMNSLKPVDTAVYYCARDSLQVFYPYASDDYWGQGTQVTVSS”, for which the “polyreactivity (PSR sort gate)” value is listed as “low polyreactivity”. The same measure for “QVQLVESGGGLVQAGGSLRLSCAASGRIFPWNDMGWYRQAPGKERELVAAITYRGGRTYYADSVKGRFTISRDNAKNTVYLQMNSLKPEDTAVYYCAKTRYFSVGPHWDYYYWGQGTQVTVSS”: “high polyreactivity”; for “QVQLVESGGGLVQAGGSLRLSCAASGFIFRYYAMGWYRQAPGKERELVAAIRRGGSTYYADSVKGRFTISRDNAKNTVYLQMNSLKPEDTAVYYCAASFWGIAMGYWGQGTQVTVSS”: “high polyreactivity”; for “QVQLVESGGGLVQAGGSLRLSCAAYGRTFLFYAMGWYIQAPGKERELVAAITRSDGSTYYADSVKGRFTISRDNAKNTVYLQMNSLKPEDTAVYYCAAEYVSILRDYDYWGQGTQVTVSS”: “low polyreactivity”. Next, “QVQLVESGGGLVQAGGSLRLSCAASGRILGYYAMGWYRQAPGKERELVAAISSGDSTNYADSVKGRFTISRDNAKNTVYLQMNSLKPEDTAVYYCAAKGWIWNPYNYWGQGTQVTVSS”: “low polyreactivity”; “QVQLVESGGGLVQAGGSLRLSCAASGSIFSLNAMGWYRQAPGKEREFVAASGGGSTYYADSVKGRFTISRDNAKNTVYLQMNSLKPEDCAVYYCAARVLTDELDYWGQGTQVTVSS”: “low polyreactivity”; “QFQLVESWGGLVQAGGSLRLSCAASGTMGWYRQAPVKERELVAAISQSGGSTYYADSVKGRFTISRDNAKNTVYLQMNSLKPEDTAVYYCAVDPLYGDPRRDYWGQGTQVTVSS”: “low polyreactivity”.

For “QVQLVESGGGLVQAGGSLRLSCAASGRIFHWYAMGWYRQAPGKERELVAAIRWTGGSTYYADSVKGRFTISRDNAKNTVYLQMNSLKPEDTAVYYCAAKGYTGIFYEMDYWGQGTQVTVSS”, the “polyreactivity (PSR sort gate)” value is listed as “low polyreactivity”. “QVQLVESGGGLVQAGGSLRLSCAASGRIFYPYAMGWYRQAPGKERELVAAINWSGDRTYYADSVKGRFTISRDNAKNTVYLQMNSLKPEDTAVYYCAAVYFTRSSGRRYDYWGQGTQVTVSS”: the “polyreactivity (PSR sort gate)” value is given as “high polyreactivity”. The same measure for “QVQLVESGGGLVQAGGSLRLSCAASGSIFQYNAMGWYRQAPGKERELVAAISSRGGITYYADSVKGRFTISRDNAQNTVYLQMNSLKPEDTAVYYCAAEAYYSEVRWYEYWGQGTQVTVSS”: “high polyreactivity”; for “QVQLVESGGGLVQAGGSLRLSCAASGFTFYDYAMGWYRQAPGKERELVAVITRRGGSTYYADSVKRRFTISRDNAKKTVDLQMNSLKPEDTAVYDCAADWRGWSFVRGDDYWGHGTQVTVSS”: “high polyreactivity”. Next, “QVQHVESVGGLLQAGGSLPLSCASSGSTFTGYAMGRYREAPGIVRELVAAISSSGGRTYYADSVKGRFTISRDNAKNTVYLQMNSLKPEDTAVYYCAVRPRYRPSGYVEYDSWGQSTQVTVSS”: “high polyreactivity”.

As for “QVQLVESGGGLVQAGGSLRLSCAASGFIFRWNAMGWYRQAPGKVRELVAAISNSDGSTYYADSVKGRFTISRDNAKNTVYVQMNSLKPEDTAVYYCYKLYRGGWYDYWGQGTQVTVSS”, the “polyreactivity (PSR sort gate)” value is recorded as “low polyreactivity”.

In the case of “QVQLEDSGGGLVQAGGSLRLSCAASGLIFLDYAMGCYRQAPGKERELVAAISRSGGRTYYADSVKGRFTISRDNAKNTVYLQMNIVKPEDTAVYYCNAYQSARKKATASTYDSWGQCTQVTVSS”, the “polyreactivity (PSR sort gate)” value is recorded as “high polyreactivity”.

On to “QVQLVESGGGLVQAGGSLRLSCADSGRTFSYNLMGWYSQAPGKESEVVAAISRRGGSTYYADSVKGRFTISRDNAKNTVYLQMNSLKPEDTAVYYCNAVSPSPGGGYWGQGSQVTVSS”, for which the “polyreactivity (PSR sort gate)” value is “high polyreactivity”. Next, “QVQLVESGGGLVQAGGSLRLSCAASGNTFTWYTMGWYRQAPGKERELVAGITWSGGSTFYADSVKGRFTISRDNAKNTVYLQMNSLKPEDTAVYYCAVSTEVNRYHAKYDYWGQGTQVTVSS”: “low polyreactivity”; “QVQLEESGGGLVQAGGRLRLSCAASGSNTRTYAMGWYRQAHGKERELVAAISSSVCRTYYADSVKGRFTISRDNEKNTVYLQMNSLKPEDTAVYYCNSRTYSYRGYNYWGQGTQVTVSS”: “high polyreactivity”. As to “QVQLVESGGGLVQAGGSLRLSCDASGLIFSWYAMGWYRQPPGKERELVAAISKGGGSTYYADSVKGRFTISRDNAKITVYLQMNSLKPEDTAVYYCAAASSYGYGYWGQGTQVTVSS”, the “polyreactivity (PSR sort gate)” value is given as “high polyreactivity”. Next, “QVQLVESGGGLVQAGGSLRLSCAASGIPFKGYAMGWYRQAPGQERELVAASNSRGGTYADSVKGRFTISRDNAKNTVYLQRNSLKPEDTAVYYCGVSAVRPLPLDSGYDYWGQGSQVTVSS”: “low polyreactivity”; “QVQLVESGGGLVQAGGSLRLSCAASGSTIGRYAMGWYRQAPGKERELVAAISSSGDRTYYADSVKGRFTISRDNAKNTVYLQMNSLKPEDTAVYYCNSRRLFSGYDYWGQGTQVTVSS”: “high polyreactivity”; “QVQLVESGGGLVQAGGSLSLSCAASGSIFDYNAMGWYRQAPGKEREVVAAIDGGSTYYADSVKGRFTISRDNAKNNVYLQMNSLKPEDTAVDYCAAEGFQADTYYWPMESWGQGTQVTVSS”: “low polyreactivity”. Next, “QVQLVESRGGKVQAVGSLRLSCAASGLTFYTYAMGWYRQEPGKDRELVAAIRYRGGRSNYADSVKGRFTISRDNANNTVYLQMNSLKPEDTAVYYCAARSILVTQAYGYWGQGTQVNVSS”: “high polyreactivity”; “QVQLVESGGGLVQAGGSLRLSCAASRSTFTGNAMGWYRQAPGNERELVASINGSSGSTYYADSVKGRFTISRDNAKNTVYLQMNSLKPEDTAVYYCAKDSFLHFPRVGWVGLEYWGQGTQVTVSS”: “low polyreactivity”; “QFQLVESGGGLVQAGGSLRLSCAASGSTFVYYAMGWYRQAPGKERELVAAITASGGGTYYADSVKGRFTISRDNAKNTVYLQMNSLKPEDTAVYYCAAYLGWGYDYWGQGTQVTVSS”: “low polyreactivity”. The same measure for “QVQLVESGGGLVQAGGSLRLSCAASGRIFTSNTMGWYRPAPGKERELVAAITSSGGSMYYADSVKGRFTISRDNAKNTVYIQMNSLKPEDTAVYYCAARNYFWGQGTQVTVSS”: “low polyreactivity”; for “QVQLVESGGGLVQAGGSLRLRCASSGITFRGYAMGWYRQAPGKERELVASITNTDSTYYADSVKGRFTISRDNAKNTVYLQMNSLKPEDTAVYYCAARRGRKYGYWGQGTQVTVSS”: “high polyreactivity”; for “QVQLVESGGGLVQAGGSLRLSCAASGSIYYYVMGWYRQAPGKERELVAAISRSTGRTYYADSVKGRFTISRDNAKNTVYLQMNSLKPEDTAVYYCNKVVPHKPPTMDYWGQGTQVTVSS”: “high polyreactivity”. For the sequence “QVQLVESGGGLVQAGGSLRLSCAASGSIFIINAMGWYIQAPGKERELVAAINNGVNTYYADSVKGRFTISRDNAKNTVYLQMNSLKPEDTAVYYCAADYGDPRVNEYDYWGQGTQVTVSS”, the “polyreactivity (PSR sort gate)” value is recorded as “low polyreactivity”.

“QVKLVESGGGLVQAGGSLRLSCAASGFTFNANAMRWYRQAPGKERELVAAISLSGGRTYYADSVKGRFTISRDNAKNTVYLQMISLKPEDTAVYYCAASPDGSFRRFSRVVSGDYWGKGTQVTVSS”: the “polyreactivity (PSR sort gate)” value is listed as “high polyreactivity”. Next, “QVQLVESGGGLVQAGGSLRLSCAASGYTFKRNDMGWYRQAPGKERELVAAISKSGGSTYYADSVKGRFTISRDNAKNTVYLQMNSLKPEDTAVYYCPGPLPYYGQYDYWGQGTQVTVSS”: “low polyreactivity”.

Consider “QDQHVESVGGLVQAGGSLRLSCAASGSIIPLYAMGWYRQAPGKERELVAAISSRGGSTYYADSVKGRFSISRDNAKNTVYLQMKSLKPEDTAVYYCAVDTPSPSRGPRFNYWGQGTQVTVSS”, for which the “polyreactivity (PSR sort gate)” value was “high polyreactivity”. The same measure for “QVQLVESGGGLVQAGGSLRLSCAASGFTFYLYAMGWYRQAPGKERELVAASTWSGGRTYYADSVKGRFTISRDNAKNTVYLQMNSLKPEDTADYYCAVDGFRGRSHGANDFWGQGTQVTVSS”: “high polyreactivity”; for “QVQLVESGGGLVQAGGSLRLSCAASGRTFISNTMGWYRQAPGKERELVAALSGSGGSTYYADSVKGRFTISRDNAKNSVYLNMNRLKPEDTAVYYCNAPYVRQTRFGQSVRNNYWGQGTQVTVSS”: “high polyreactivity”.

The record behind these values is the nanobody polyreactivity screen of Harvey et al. (2022).
